# Reference: publication PMC12216690, “MORC2 is a phosphorylation-dependent DNA compaction machine” (Nature Communications, 2024)
# Columns and labels:
# [1] = biological target: the molecule itself; test: SEC-MALS; XBridge Protein BEH SEC column; 50 mM HEPES pH 8.0, 300 mM NaCl, 1 mM TCEP; 20 µl of protein at 1 mg/ml injected; no nucleotide
# [2] = biological target: the molecule itself; test: cryo-EM structure; 2 µM protein with AMP-PNP, with or without three-fold molar excess of 60 bp DNA; C2 symmetry imposed
# [3] = biological target: the molecule itself; test: number and brightness analysis (fluorescence fluctuation spectroscopy); live MORC2 knockout HEK293T cells with low expression of MORC2-meGFP, nucleus, 37 degrees; without or with 0.5 µg/mL neocarzinostatin for 1 hour
# [4] = biological target: the molecule itself; test: atomic force microscopy; dry AFM, 10 nM MORC2 in 40 mM Tris pH 7.5, 50 mM NaCl, 1 mM MgCl2, 0.5 mM TCEP, with 1 mM ATP, with 1 mM AMP-PNP or without ATP, on poly-O-lysine treated mica; particle volumes fitted with two gaussians
protein,measurement,setting,value
"full-length MORC2 (MORC2^WT) (natural protein, human, UniProt Q9Y6X9 1-1032, looked up, came phosphorylated from insect cells at multiple sites; top 6 hits S725, S730, S739, S743, S777, S779, MORC2, human, UniProt Q9Y6X9, full length (1-1032); No cleavage of the tag is described; the SPR and single-molecule methods speak of StrepII-tagged MORC2; also called MORC2 WT (1-1032); MORC2^Apo; source: Sf9 insect cells, purified (Strep-Tactin, HiTrap Q, Superose 6 SEC)) MAFTNYSSLNRAQLTFEYLHTNSTTHEFLFGALAELVDNARDADATRIDIYAERREDLRGGFMLCFLDDGAGMDPSDAASVIQFGKSAKRTPESTQIGQYGNGLKSGSMRIGKDFILFTKKEDTMTCLFLSRTFHEEEGIDEVIVPLPTWNARTREPVTDNVEKFAIETELIYKYSPFRTEEEVMTQFMKIPGDSGTLVIIFNLKLMDNGEPELDIISNPRDIQMAETSPEGTKPERRSFRAYAAVLYIDPRMRIFIHGHKVQTKRLSCCLYKPRMYKYTSSRFKTRAEQEVKKAEHVARIAEEKAREAESKARTLEVRLGGDLTRDSRVMLRQVQNRAITLRREADVKKRIKEAKQRALKEPKELNFVFGVNIEHRDLDGMFIYNCSRLIKMYEKVGPQLEGGMACGGVVGVVDVPYLVLEPTHNKQDFADAKEYRHLLRAMGEHLAQYWKDIAIAQRGIIKFWDEFGYLSANWNQPPSSELRYKRRRAMEIPTTIQCDLCLKWRTLPFQLSSVEKDYPDTWVCSMNPDPEQDRCEASEQKQKVPLGTFRKDMKTQEEKQKQLTEKIRQQQEKLEALQKTTPIRSQADLKKLPLEVTTRPSTEEPVRRPQRPRSPPLPAVIRNAPSRPPSLPTPRPASQPRKAPVISSTPKLPALAAREEASTSRLLQPPEAPRKPANTLVKTASRPAPLVQQLSPSLLPNSKSPREVPSPKVIKTPVVKKTESPIKLSPATPSRKRSVAVSDEEEVEEEAERRKERCKRGRFVVKEEKKDSNELSDSAGEEDSADLKRAQKDKGLHVEVRVNREWYTGRVTAVEVGKHVVRWKVKFDYVPTDTTPRDRWVEKGSEDVRLMKPPSPEHQSLDTQQEGGEEEVGPVAQQAIAVAEPSTSECLRIEPDTTALSTNHETIDLLVQILRNCLRYFLPPSFPISKKQLSAMNSDELISFPLKEYFKQYEVGLQNLCNSYQSRADSRAKASEESLRTSERKLRETEEKLQKLRTNIVALLQKVQEDIDINTDDELDAYIEDLITKGD",stoichiometry N,[1],2
"MORC2 phosphodead (MORC2^PD) mutant (natural protein, human, UniProt Q9Y6X9 1-1032, looked up, MORC2, human, UniProt Q9Y6X9, full length with six serine to alanine mutations in the CTD; Only the ATPase domain is modelled in the cryo-EM maps; also called MORC2^PD-DNA; source: Sf9 insect cells, purified (Strep-Tactin, HiTrap Q, Superose 6 SEC)) MAFTNYSSLNRAQLTFEYLHTNSTTHEFLFGALAELVDNARDADATRIDIYAERREDLRGGFMLCFLDDGAGMDPSDAASVIQFGKSAKRTPESTQIGQYGNGLKSGSMRIGKDFILFTKKEDTMTCLFLSRTFHEEEGIDEVIVPLPTWNARTREPVTDNVEKFAIETELIYKYSPFRTEEEVMTQFMKIPGDSGTLVIIFNLKLMDNGEPELDIISNPRDIQMAETSPEGTKPERRSFRAYAAVLYIDPRMRIFIHGHKVQTKRLSCCLYKPRMYKYTSSRFKTRAEQEVKKAEHVARIAEEKAREAESKARTLEVRLGGDLTRDSRVMLRQVQNRAITLRREADVKKRIKEAKQRALKEPKELNFVFGVNIEHRDLDGMFIYNCSRLIKMYEKVGPQLEGGMACGGVVGVVDVPYLVLEPTHNKQDFADAKEYRHLLRAMGEHLAQYWKDIAIAQRGIIKFWDEFGYLSANWNQPPSSELRYKRRRAMEIPTTIQCDLCLKWRTLPFQLSSVEKDYPDTWVCSMNPDPEQDRCEASEQKQKVPLGTFRKDMKTQEEKQKQLTEKIRQQQEKLEALQKTTPIRSQADLKKLPLEVTTRPSTEEPVRRPQRPRSPPLPAVIRNAPSRPPSLPTPRPASQPRKAPVISSTPKLPALAAREEASTSRLLQPPEAPRKPANTLVKTASRPAPLVQQLSPSLLPNSKSPREVPSPKVIKTPVVKKTEAPIKLAPATPSRKRAVAVADEEEVEEEAERRKERCKRGRFVVKEEKKDSNELADAAGEEDSADLKRAQKDKGLHVEVRVNREWYTGRVTAVEVGKHVVRWKVKFDYVPTDTTPRDRWVEKGSEDVRLMKPPSPEHQSLDTQQEGGEEEVGPVAQQAIAVAEPSTSECLRIEPDTTALSTNHETIDLLVQILRNCLRYFLPPSFPISKKQLSAMNSDELISFPLKEYFKQYEVGLQNLCNSYQSRADSRAKASEESLRTSERKLRETEEKLQKLRTNIVALLQKVQEDIDINTDDELDAYIEDLITKGD",binding result,[2],binds
"monomeric eGFP (meGFP)-tagged MORC2 (natural protein, human, UniProt Q9Y6X9 1-1032, looked up, MORC2, human, UniProt Q9Y6X9; Probably the full-length cDNA; also called MORC2-meGFP; pBacMam-MORC2-meGFP-StrepII; source: expressed in MORC2 knockout HEK293T cells, in live cells) MAFTNYSSLNRAQLTFEYLHTNSTTHEFLFGALAELVDNARDADATRIDIYAERREDLRGGFMLCFLDDGAGMDPSDAASVIQFGKSAKRTPESTQIGQYGNGLKSGSMRIGKDFILFTKKEDTMTCLFLSRTFHEEEGIDEVIVPLPTWNARTREPVTDNVEKFAIETELIYKYSPFRTEEEVMTQFMKIPGDSGTLVIIFNLKLMDNGEPELDIISNPRDIQMAETSPEGTKPERRSFRAYAAVLYIDPRMRIFIHGHKVQTKRLSCCLYKPRMYKYTSSRFKTRAEQEVKKAEHVARIAEEKAREAESKARTLEVRLGGDLTRDSRVMLRQVQNRAITLRREADVKKRIKEAKQRALKEPKELNFVFGVNIEHRDLDGMFIYNCSRLIKMYEKVGPQLEGGMACGGVVGVVDVPYLVLEPTHNKQDFADAKEYRHLLRAMGEHLAQYWKDIAIAQRGIIKFWDEFGYLSANWNQPPSSELRYKRRRAMEIPTTIQCDLCLKWRTLPFQLSSVEKDYPDTWVCSMNPDPEQDRCEASEQKQKVPLGTFRKDMKTQEEKQKQLTEKIRQQQEKLEALQKTTPIRSQADLKKLPLEVTTRPSTEEPVRRPQRPRSPPLPAVIRNAPSRPPSLPTPRPASQPRKAPVISSTPKLPALAAREEASTSRLLQPPEAPRKPANTLVKTASRPAPLVQQLSPSLLPNSKSPREVPSPKVIKTPVVKKTESPIKLSPATPSRKRSVAVSDEEEVEEEAERRKERCKRGRFVVKEEKKDSNELSDSAGEEDSADLKRAQKDKGLHVEVRVNREWYTGRVTAVEVGKHVVRWKVKFDYVPTDTTPRDRWVEKGSEDVRLMKPPSPEHQSLDTQQEGGEEEVGPVAQQAIAVAEPSTSECLRIEPDTTALSTNHETIDLLVQILRNCLRYFLPPSFPISKKQLSAMNSDELISFPLKEYFKQYEVGLQNLCNSYQSRADSRAKASEESLRTSERKLRETEEKLQKLRTNIVALLQKVQEDIDINTDDELDAYIEDLITKGD",fold increase of dimers upon neocarzinostatin,[3],~2 fold
"full-length MORC2 ATPase-dead mutant (MORC2^S87A) (natural protein, human, UniProt Q9Y6X9 1-1032, looked up, MORC2, human, UniProt Q9Y6X9, full length with S87A; Only the ATPase domain is modelled in the cryo-EM map; also called S87A mutant; source: Sf9 insect cells, purified (Strep-Tactin, HiTrap Q, Superose 6 SEC)) MAFTNYSSLNRAQLTFEYLHTNSTTHEFLFGALAELVDNARDADATRIDIYAERREDLRGGFMLCFLDDGAGMDPSDAASVIQFGKAAKRTPESTQIGQYGNGLKSGSMRIGKDFILFTKKEDTMTCLFLSRTFHEEEGIDEVIVPLPTWNARTREPVTDNVEKFAIETELIYKYSPFRTEEEVMTQFMKIPGDSGTLVIIFNLKLMDNGEPELDIISNPRDIQMAETSPEGTKPERRSFRAYAAVLYIDPRMRIFIHGHKVQTKRLSCCLYKPRMYKYTSSRFKTRAEQEVKKAEHVARIAEEKAREAESKARTLEVRLGGDLTRDSRVMLRQVQNRAITLRREADVKKRIKEAKQRALKEPKELNFVFGVNIEHRDLDGMFIYNCSRLIKMYEKVGPQLEGGMACGGVVGVVDVPYLVLEPTHNKQDFADAKEYRHLLRAMGEHLAQYWKDIAIAQRGIIKFWDEFGYLSANWNQPPSSELRYKRRRAMEIPTTIQCDLCLKWRTLPFQLSSVEKDYPDTWVCSMNPDPEQDRCEASEQKQKVPLGTFRKDMKTQEEKQKQLTEKIRQQQEKLEALQKTTPIRSQADLKKLPLEVTTRPSTEEPVRRPQRPRSPPLPAVIRNAPSRPPSLPTPRPASQPRKAPVISSTPKLPALAAREEASTSRLLQPPEAPRKPANTLVKTASRPAPLVQQLSPSLLPNSKSPREVPSPKVIKTPVVKKTESPIKLSPATPSRKRSVAVSDEEEVEEEAERRKERCKRGRFVVKEEKKDSNELSDSAGEEDSADLKRAQKDKGLHVEVRVNREWYTGRVTAVEVGKHVVRWKVKFDYVPTDTTPRDRWVEKGSEDVRLMKPPSPEHQSLDTQQEGGEEEVGPVAQQAIAVAEPSTSECLRIEPDTTALSTNHETIDLLVQILRNCLRYFLPPSFPISKKQLSAMNSDELISFPLKEYFKQYEVGLQNLCNSYQSRADSRAKASEESLRTSERKLRETEEKLQKLRTNIVALLQKVQEDIDINTDDELDAYIEDLITKGD",binding result,[2],binds
"ATP-binding-deficient mutant MORC2 N39A (MORC2^N39A) (natural protein, human, UniProt Q9Y6X9 1-1032, looked up, MORC2, human, UniProt Q9Y6X9, full length with N39A; also called N39A mutant; source: Sf9 insect cells, purified (Strep-Tactin, HiTrap Q, Superose 6 SEC)) MAFTNYSSLNRAQLTFEYLHTNSTTHEFLFGALAELVDAARDADATRIDIYAERREDLRGGFMLCFLDDGAGMDPSDAASVIQFGKSAKRTPESTQIGQYGNGLKSGSMRIGKDFILFTKKEDTMTCLFLSRTFHEEEGIDEVIVPLPTWNARTREPVTDNVEKFAIETELIYKYSPFRTEEEVMTQFMKIPGDSGTLVIIFNLKLMDNGEPELDIISNPRDIQMAETSPEGTKPERRSFRAYAAVLYIDPRMRIFIHGHKVQTKRLSCCLYKPRMYKYTSSRFKTRAEQEVKKAEHVARIAEEKAREAESKARTLEVRLGGDLTRDSRVMLRQVQNRAITLRREADVKKRIKEAKQRALKEPKELNFVFGVNIEHRDLDGMFIYNCSRLIKMYEKVGPQLEGGMACGGVVGVVDVPYLVLEPTHNKQDFADAKEYRHLLRAMGEHLAQYWKDIAIAQRGIIKFWDEFGYLSANWNQPPSSELRYKRRRAMEIPTTIQCDLCLKWRTLPFQLSSVEKDYPDTWVCSMNPDPEQDRCEASEQKQKVPLGTFRKDMKTQEEKQKQLTEKIRQQQEKLEALQKTTPIRSQADLKKLPLEVTTRPSTEEPVRRPQRPRSPPLPAVIRNAPSRPPSLPTPRPASQPRKAPVISSTPKLPALAAREEASTSRLLQPPEAPRKPANTLVKTASRPAPLVQQLSPSLLPNSKSPREVPSPKVIKTPVVKKTESPIKLSPATPSRKRSVAVSDEEEVEEEAERRKERCKRGRFVVKEEKKDSNELSDSAGEEDSADLKRAQKDKGLHVEVRVNREWYTGRVTAVEVGKHVVRWKVKFDYVPTDTTPRDRWVEKGSEDVRLMKPPSPEHQSLDTQQEGGEEEVGPVAQQAIAVAEPSTSECLRIEPDTTALSTNHETIDLLVQILRNCLRYFLPPSFPISKKQLSAMNSDELISFPLKEYFKQYEVGLQNLCNSYQSRADSRAKASEESLRTSERKLRETEEKLQKLRTNIVALLQKVQEDIDINTDDELDAYIEDLITKGD",binding result,[4],binds
